Test results taken from patent US20220396819A1, “METHOD FOR PRODUCING PEPTIDE HAVING PHYSIOLOGICAL ACTIVITY, AND PEPTIDE COMPRISING SHORT LINKER” (priority 2019, published 2022).
Like-named read-outs stand apart in the source and are kept apart here. Positions of bridges follow the written chain, without caps; N, C: chain ends. No end group written: not given here.

T1: EpoR (UniProt P19235 25-508, limits assumed)
T1 sequence (looked up): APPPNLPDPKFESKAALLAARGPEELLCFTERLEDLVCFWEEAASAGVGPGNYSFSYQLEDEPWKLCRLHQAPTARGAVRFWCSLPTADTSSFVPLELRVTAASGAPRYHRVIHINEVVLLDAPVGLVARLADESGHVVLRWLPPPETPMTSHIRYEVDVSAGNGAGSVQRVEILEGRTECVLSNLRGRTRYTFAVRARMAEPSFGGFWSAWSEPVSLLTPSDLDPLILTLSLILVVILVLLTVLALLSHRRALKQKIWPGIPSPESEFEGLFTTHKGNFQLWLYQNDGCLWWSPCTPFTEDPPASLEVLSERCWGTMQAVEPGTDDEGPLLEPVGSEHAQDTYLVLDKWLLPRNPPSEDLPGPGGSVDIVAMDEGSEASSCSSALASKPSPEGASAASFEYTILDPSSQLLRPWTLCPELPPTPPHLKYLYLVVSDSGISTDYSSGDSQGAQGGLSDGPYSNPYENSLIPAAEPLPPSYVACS

B1: AET-EPO-PAS8 (peptide)
peptide: AETGGLYACHMGPMTWVCQPLRGAAPAAPAPGGLYACHMGPMTWVCQPLRG
modifications: disulfide 9-18, 37-46
B2: AET-EPO-PAS22 (peptide)
peptide: AETGGLYACHMGPMTWVCQPLRGAAPAAPAPAAPAAPAPAAPAAPGGLYACHMGPMTWVCQPLRG
modifications: disulfide 9-18, 51-60
B3: AET-EPO-PAS22-PAS200 (peptide)
peptide: AETGGLYACHMGPMTWVCQPLRGAAPAAPAPAAPAAPAPAAPAAPGGLYACHMGPMTWVCQPLRGAAPAAPAPAAPAAPAPAAPAAPAPAAPAAPAPAAPAAPAPAAPAAPAPAAPAAPAPAAPAAPAPAAPAAPAPAAPAAPAPAAPAAPAPAAPAAPAPAAPAAPAPAAPAAPAPAAPAAPAPAAPAAPAPAAPAAPAPAAPAAPAPAAPAAPAPAAPAAPAPAAPAAPAPAAPAAPAPAAPAAPAPAAPAAPAPAAPAAPAP
modifications: two disulfide bonds in the molecule
B4: AET-EPO-PAS22-PAS600 (peptide)
peptide: AETGGLYACHMGPMTWVCQPLRGAAPAAPAPAAPAAPAPAAPAAPGGLYACHMGPMTWVCQPLRGAAPAAPAPAAPAAPAPAAPAAPAPAAPAAPAPAAPAAPAPAAPAAPAPAAPAAPAPAAPAAPAPAAPAAPAPAAPAAPAPAAPAAPAPAAPAAPAPAAPAAPAPAAPAAPAPAAPAAPAPAAPAAPAPAAPAAPAPAAPAAPAPAAPAAPAPAAPAAPAPAAPAAPAPAAPAAPAPAAPAAPAPAAPAAPAPAAPAAPAPAAPAAPAPAAPAAPAPAAPAAPAPAAPAAPAPAAPAAPAPAAPAAPAPAAPAAPAPAAPAAPAPAAPAAPAPAAPAAPAPAAPAAPAPAAPAAPAPAAPAAPAPAAPAAPAPAAPAAPAPAAPAAPAPAAPAAPAPAAPAAPAPAAPAAPAPAAPAAPAPAAPAAPAPAAPAAPAPAAPAAPAPAAPAAPAPAAPAAPAPAAPAAPAPAAPAAPAPAAPAAPAPAAPAAPAPAAPAAPAPAAPAAPAPAAPAAPAPAAPAAPAPAAPAAPAPAAPAAPAPAAPAAPAPAAPAAPAPAAPAAPAPAAPAAPAPAAPAAPAPAAPAAPAPAAPAAPAPAAPAAPAPAAPAAPAPAAPAAPAPAAPAAPAPAAPAAPAPAAPAAPAPAAPAAPAPAAPAAPAP
modifications: two disulfide bonds in the molecule

Legend:
[1] = test system: HEL cells; test: Thrombopoietin-like activity, tyrosine phosphorylation levels in HEL cells (dot blot); assay type: cell-based, human; conditions: for increase in tyrosine phosphorylation levels compared with rhTPO: culture supernatant diluted, 20 minutes, rhTPO 10 to 100 ng/mL, FIG. 41
Description: The thrombopoietin-like activity of the TPO-PAS dimer peptide was evaluated by quantification of tyrosine phosphorylation levels in HEL cells, a human leukemia-derived blood cell line. 200,000 HEL cells were cultured in RPMI 1640 medium without FBS (Thermo Fisher Scientific) for 24 hours and starved. The cells were stimulated for 20 minutes in RPMI 1640 medium supplemented with 10 to 100 ng/mL recombinant human TPO (rhTPO, Peprotech) or a culture supernatant containing AET-TPO1-PAS8, TPO2-PAS8, or AET-TPO2-PAS8 at a predetermined dilution factor. As a negative control, PBS (Mock group) or a supernatant expressing no peptide (Empty group) by using an empty vector was added, and stimulation was performed for 20 minutes. After removing the medium and washing the cells once with PBS, the cells were lysed by adding 100 μL of Lysis buffer 17 (R&D Systems) supplemented with Protease inhibitor cocktail (Nacalai Tesque). The lysate solution was centrifuged at 14,000 G for 5 minutes to obtain the supernatant as lysate.
APVDF membrane (Immobilon-P membrane 0.45 m, Merck) was treated with methanol for 1 minute and then with ultrapure water for 5 minutes for hydrophilic treatment. The PVDF membrane was dried, and each cell lysate solution was spotted with a 1 μL pipette and dried. The PVDF membrane was blocked with PVDF Blocking Reagent for Can Get Signal (NOF) at room temperature for 1 hour, and then Can Get Signal Solution 2 (NOF), supplemented with anti-pY antibody-[…] conjugate (Cell Signaling Technology) at 1:5000, was added, followed by an antibody reaction at 4° C. for 24 hours. The membrane was washed 3 times with TBST buffer, Luminata Crescendo Western HRP Substrate (Merck) was added, and a chemiluminescence reaction was carried out. Chemiluminescence was detected using Amersham Imager 600 (GE Healthcare). The luminescence intensity of the detected dots was quantified by ImageJ.

[2] = test system: HEL cells; test: Signal characteristics, Proteome Profiler Human Phospho-Kinase Array Kit, HEL cells; assay type: cell-based; conditions: 100 ng/mL rhTPO or culture supernatant 1/100 to 1/1000, 20 minutes, FIG. 43
Description: The signal characteristics of the TPO-PAS dimer peptide were evaluated using Proteome Profiler Human Phospho-Kinase Array Kit (R&D Systems).
1,000,000 HEL cells were cultured in RPMI 1640 medium without FBS (Thermo Fisher Scientific) for 24 hours and starved. The cells were stimulated for 20 minutes in RPMI 1640 medium supplemented with 100 ng/mL recombinant human TPO (rhTPO, Peprotech) or a culture supernatant containing TPO2-PAS8 at a dilution of 1/100 to 1/1000. As a negative control, PBS was added, and stimulation was performed for 20 minutes (Mock group). After removing the medium and washing the cells once with PBS, the cells were lysed by adding 200 μL of Lysis buffer 17 (R&D Systems) supplemented with Protease inhibitor cocktail (Nacalai Tesque). The lysate solution was centrifuged at 14,000 G for 5 minutes to obtain the supernatant as lysate.
The lysate was analyzed using Proteome Profiler Human Phospho-Kinase Array Kit. Amersham Imager 600 (GE Healthcare) was used to detect chemiluminescence. The chemiluminescence intensity of the dots was quantified using ImageJ. […] The signal pathway stimulated by rhTPO is mainly the JAK2/Stat3,5 pathway, and all of the proteins with increased phosphorylation levels are included in the pathway.

[3] = molecular target: T2, FGFR (Homo sapiens, UniProt P11362); test: FGFR inhibitory activity, SRE luciferase assay in HEK293E cells stimulated with bFGF; assay type: cell-based; conditions: peptide at 10 μM, 0 to 10 ng/mL bFGF, FIG. 3
T2 construct: endogenous in cells; host or cells: HEK293E
T2 sequence (P11362 22-822): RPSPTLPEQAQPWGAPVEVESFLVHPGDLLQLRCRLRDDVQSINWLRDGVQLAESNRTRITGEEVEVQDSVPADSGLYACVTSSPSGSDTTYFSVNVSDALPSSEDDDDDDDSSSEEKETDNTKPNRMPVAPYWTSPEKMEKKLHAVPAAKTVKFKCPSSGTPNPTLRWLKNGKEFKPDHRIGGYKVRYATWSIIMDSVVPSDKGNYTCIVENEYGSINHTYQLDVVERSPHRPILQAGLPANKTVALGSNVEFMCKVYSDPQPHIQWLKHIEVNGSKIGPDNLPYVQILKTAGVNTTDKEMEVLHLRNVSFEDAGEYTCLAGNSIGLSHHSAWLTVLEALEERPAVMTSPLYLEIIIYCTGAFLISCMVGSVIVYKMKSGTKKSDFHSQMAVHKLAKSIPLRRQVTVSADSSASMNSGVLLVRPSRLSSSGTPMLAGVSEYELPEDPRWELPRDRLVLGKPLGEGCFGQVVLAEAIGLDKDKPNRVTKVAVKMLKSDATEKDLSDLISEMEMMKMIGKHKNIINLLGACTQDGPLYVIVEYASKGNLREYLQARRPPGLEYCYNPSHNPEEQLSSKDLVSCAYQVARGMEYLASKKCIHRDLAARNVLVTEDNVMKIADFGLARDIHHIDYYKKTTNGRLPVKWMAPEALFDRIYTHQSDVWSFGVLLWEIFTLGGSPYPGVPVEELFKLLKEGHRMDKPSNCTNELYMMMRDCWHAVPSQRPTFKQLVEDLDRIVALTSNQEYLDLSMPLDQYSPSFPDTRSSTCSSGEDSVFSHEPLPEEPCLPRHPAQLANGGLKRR
Description: The inhibitory activity of the FBP monomer peptide chemically synthesized with the FBP-PAS dimer peptide on FGFR was evaluated by luciferase assay. To 25 μL of Opti-MEM medium (Thermo Fisher Scientific), 0.6 μL of Attractene Transfection Reagent (QIAGEN) was added, and the mixture was incubated at room temperature for 5 minutes. To the above mixed solution, a mixed solution of 25 μL of Opti-MEM and 1 μL of SRE reporter vector (QIAGEN) was added, and the mixture was incubated at room temperature for 20 minutes. This mixed solution was added to a 96-well plate, over which 40,000 cell/well HEK293E cells were seeded and incubated overnight in a 5% CO2 incubator at 37° C. […]
The signal intensities were detected using Dual-Luciferase Reporter Assay System (Promega). […] The luminescence of Firefly luciferase emitted from the cell lysate solution was detected with a plate reader to quantify the activation of the FGFR-Erk-SRE pathway. Subsequently, 50 μL of Glo & Stop reagent solution was added, and after 10 minutes, the luminescence of the internal standard Renilla luciferase was detected to quantify the number of cells. The signal activity of each sample was quantified as SRE activity=(Firefly luciferase luminescence intensity)/(Renilla luciferase luminescence intensity). […]

[4] = molecular target: Met (HGF receptor) (UniProt P08581); test: cell-based or functional assay
Met (HGF receptor), sequence (P08581 25-1390 limits assumed): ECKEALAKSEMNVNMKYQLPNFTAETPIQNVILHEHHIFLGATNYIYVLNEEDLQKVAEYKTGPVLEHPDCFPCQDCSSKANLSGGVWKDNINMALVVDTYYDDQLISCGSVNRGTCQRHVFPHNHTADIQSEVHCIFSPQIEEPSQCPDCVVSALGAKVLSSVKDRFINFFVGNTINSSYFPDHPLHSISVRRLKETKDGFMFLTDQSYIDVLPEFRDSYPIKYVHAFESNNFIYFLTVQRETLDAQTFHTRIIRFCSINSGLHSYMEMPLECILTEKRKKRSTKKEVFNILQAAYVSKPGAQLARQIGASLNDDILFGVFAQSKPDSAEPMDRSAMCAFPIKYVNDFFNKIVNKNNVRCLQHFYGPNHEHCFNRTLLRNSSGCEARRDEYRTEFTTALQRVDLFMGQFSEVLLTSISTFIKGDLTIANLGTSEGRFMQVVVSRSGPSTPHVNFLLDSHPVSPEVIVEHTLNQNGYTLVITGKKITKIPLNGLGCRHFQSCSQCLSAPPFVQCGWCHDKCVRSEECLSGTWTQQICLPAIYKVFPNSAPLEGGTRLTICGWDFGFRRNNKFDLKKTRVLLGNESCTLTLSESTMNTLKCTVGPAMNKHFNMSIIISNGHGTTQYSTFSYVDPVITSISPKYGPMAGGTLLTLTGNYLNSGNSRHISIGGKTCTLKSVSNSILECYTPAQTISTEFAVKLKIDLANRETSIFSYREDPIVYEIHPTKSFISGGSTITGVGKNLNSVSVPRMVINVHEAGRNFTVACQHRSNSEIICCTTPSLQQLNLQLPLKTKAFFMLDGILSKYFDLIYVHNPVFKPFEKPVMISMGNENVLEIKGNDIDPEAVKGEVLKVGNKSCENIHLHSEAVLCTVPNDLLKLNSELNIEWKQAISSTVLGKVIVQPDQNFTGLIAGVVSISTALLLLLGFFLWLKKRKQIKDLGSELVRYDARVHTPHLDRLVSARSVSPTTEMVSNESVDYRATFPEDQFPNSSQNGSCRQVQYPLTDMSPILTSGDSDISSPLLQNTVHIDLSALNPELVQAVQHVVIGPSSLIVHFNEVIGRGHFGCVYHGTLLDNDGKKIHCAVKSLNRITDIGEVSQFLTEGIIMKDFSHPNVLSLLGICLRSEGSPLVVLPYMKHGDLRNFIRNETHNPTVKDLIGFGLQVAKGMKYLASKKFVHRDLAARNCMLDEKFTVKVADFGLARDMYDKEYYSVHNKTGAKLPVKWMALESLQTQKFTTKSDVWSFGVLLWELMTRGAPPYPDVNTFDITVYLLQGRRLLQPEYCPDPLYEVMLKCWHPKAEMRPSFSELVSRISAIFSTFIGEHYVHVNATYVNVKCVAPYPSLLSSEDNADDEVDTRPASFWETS

[5] = molecular target: T1, EpoR; test: cell-based or functional assay
[6] = molecular target: T1, EpoR; test: cell-based or functional assay; remark: listed apart in the source

Row | Molecule | increase in tyrosine phosphorylation levels compared with rhTPO [1] | EC50 [5] [ng/mL] | also measured
1 | AETGGCADGPTLREWISFCGGAAPAAPAPGGCADGPTLREWISFCGG (disulfide 6-19, 32-45) [AET-TPO2-PAS8] | equal to or higher than that of rhTPO |  | 
2 | AETIEGPTLRQWLAARAAAPAAPAPIEGPTLRQWLAARA (AET-TPO1-PAS8) | equal to or higher than that of rhTPO |  | 
3 | GGCADGPTLREWISFCGGAAPAAPAPGGCADGPTLREWISFCGG (disulfide 3-16, 29-42) [TPO2-PAS8] | equal to or higher than that of rhTPO |  | luminescence intensity (HEL cell activation ability) compared with rhTPO ([1]; culture supernatant 1/100 to 1/10000 dilution, FIG. 42): equal to or higher than that of the 100 ng/mL rhTPO stimulation group; phosphorylation levels of signal proteins compared with PBS (Mock group) [2]: increased in phosphorylation levels of Erk, CREB, Stat3, Stat5a, and Stat5b
4 | RPGCGPRKPRTPKKCGSHGAAPAAPAPAAPAAPAPAAPAGRPGCGPRKPRTPKKCGSH (disulfide 4-15, 44-55) [FBP-PAS] |  |  | inhibitory activity on FGFR (relative receptor activity) [3]: higher inhibitory activity than the FBP monomer peptide
5 | recombinant human HGF (from UniProt P14210 32-728) (ligand) |  |  | rate of wound healing of HuCCT1 cells (33 ng/mL HGF) [4]: 1.6 times
6 | B1 |  | 0.19 | 
7 | B2 |  | 0.34 | 
8 | GGLYACHMGPMTWVCQPLRG [monomer peptide EMP35] |  | 110 | 
9 | B3 |  |  | EC50 [6]: 0.85 ng/mL
10 | B4 |  |  | EC50 [6]: 0.32 ng/mL
